In experiment [1] the target is TSH receptor coated onto plastic tubes (UniProt P16473). Briefly: 125I-TSH binding to TSHR coated tubes, assay buffer only.
Experiment [2] has as its target TSH receptor coated onto plastic tubes or ELISA plate wells (RSR Ltd) / detergent solubilised TSH receptor. Briefly: 125I-TSH on TSHR coated tubes, healthy blood donor serum pool only.
Experiment [3] shares this target. Described as above. This is another data set of the same source.
Experiment [4] has as its target TSH receptor coated onto plastic tubes (UniProt P16473). Briefly: 125I-TSH binding to TSHR coated tubes, assay buffer only. This is another data set of the same source.
Experiment [5] addresses TSH receptor coated onto plastic tubes or ELISA plate wells (RSR Ltd) / detergent solubilised TSH receptor. As to the kind of experiment: 125I-TSH on TSHR coated tubes, assay buffer only.
Experiment [6] has the same target. As to the kind of experiment: 125I-TSH on TSHR coated tubes, buffer only.
The target is the same in experiment [7]. As to the kind of experiment: 125I-TSH on TSHR coated tubes, buffer only. This is another data set of the same source.
Experiment [8] has as its target hTSH receptor expressed on CHO cells (human) (UniProt P16473). As to the kind of experiment: cell-based or functional assay.
For experiment [9], the target named is TSH receptor coated onto plastic tubes (UniProt P16473). As to the kind of experiment: TSHR coated tubes; 90/672 at 1 U/L; competitor 125I-9D33.
Experiment [10] shares this target. Briefly: TSHR coated tubes; 90/672 at 40 U/L; competitor 125I-TSH.
Experiment [11] has the same target. Briefly: TSHR coated tubes; 90/672 at 8 U/L; competitor 125I-TSH.
Experiment [12] has the same target. Briefly: TSHR coated tubes; 90/672 at 2 U/L; competitor 125I-TSH.
Experiment [13] has the same target. As to the kind of experiment: TSHR coated tubes; 90/672 at 8 U/L; competitor 125I-9D33.
Experiment [14] has the same target. As to the kind of experiment: TSHR coated tubes; 90/672 at 2 U/L; competitor 125I-9D33.
Experiment [15] shares this target. As to the kind of experiment: TSHR coated tubes; 90/672 at 40 U/L; competitor 125I-9D33.
Experiment [16] has the same target. Briefly: TSHR coated tubes; 90/672 at 1 U/L; competitor 125I-TSH.
For experiment [17], the target named is TSH receptor coated onto plastic tubes or ELISA plate wells (RSR Ltd) / detergent solubilised TSH receptor. As to the kind of experiment: inhibition of 125I-TSH binding, mean of serum and assay buffer.
Experiment [18] shares this target. As to the kind of experiment: Scatchard analysis, 125I-Fab on TSH receptor coated tubes.
Experiment [19] shares this target. Briefly: 125I-TSH on TSHR coated tubes, sample diluted in serum.
The target is the same in experiment [20]. As to the kind of experiment: 125I-TSH on TSHR coated tubes, sample diluted in assay buffer.

Like-named read-outs stand apart in the source and are kept apart here.

Consider 125I-labelled TSH (ligand), for which the figures for the % 125I-TSH binding in [1] and in experiment [4] were 11.5% and 11.1%, respectively. For the same substance, the % of total cpm bound in [2] amounted to 14.7%; in [3] it was 14.9%; in experiment [6] it was 16.3%; in experiment [7], 14.7%. The same substance came in with a % binding in experiment [5] of 12.1%. This substance also registered a % inhibition in experiment [5] of 0%.

In experiment [8], NIBSC 90/672 came in with a Mean cyclic AMP per well; NIBSC 90/672 0.1 units/L (pmols per well) of 1.09, a Mean cyclic AMP per well; NIBSC 90/672 0.3 units/L (pmols per well) of 1.49, a Mean cyclic AMP per well; NIBSC 90/672 1.0 units/L (pmols per well) of 3.52 and a Mean cyclic AMP per well; NIBSC 90/672 3.0 units/L (pmols per well) of 8.16.

Consider “NIBSC 90/672 (International Standard for thyroid stimulating antibody)”, for which the 125I-9D33 bound (% total counts added) in experiment [9] stood at 13%; in experiment [13], 7.1%; in experiment [14], 11%; in experiment [15], 4.1%. In addition, the inhibition of 125I-9D33 binding (%) in experiment [9] amounted to 10%; in experiment [13], 52%; in [14] it was 28%; in [15], 72%. Further, the inhibition of 125I-TSH binding (%) worked out at 92% in experiment [10], 68% in experiment [11], 23% in experiment [12] and 12% in experiment [16].

Substance hMAb TSHR1 Fab displayed a Units/mg (NIBSC 90/672), inhibition of TSH binding assay in experiment [17] of 300 Units/mg. The substance also registered a Units/nmole (NIBSC 90/672), inhibition of TSH binding assay in [17] of 15 Units/nmole. The substance further yielded a Ka in experiment [18] of 4.5e+10 M⁻¹. The substance further gave a % inhibition in experiment [19] of 36%. Also, the mean units/mg (NIBSC 90/672) in experiment [19] was 288 units/mg; in experiment [20] it was 309 units/mg. Further, the units/mg (NIBSC 90/672) in experiment [20] (Fab at 3 ng/mL) was 265 units/mg; in [20] (Fab at 10 ng/mL), 291 units/mg; in [20] (Fab at 30 ng/mL), 372 units/mg.

“human TSH (from UniProt P01215 25-116; P01222 21-132) (ligand)” yielded a stimulation of cyclic AMP production in CHO cells transfected with the TSH receptor in experiment [8] of 10 ng/mL.

(Values after patent publication US20060241289A1.)
